The text below walks through data of the supplement of paper PMC6755084.

This data set has as its system F1*sub RNA substrate (template-directed ligation). Description: fraction ligated after 30 min (ligated reads / total reads); higher = more ligase activity; sequences stand for … in GAGACCGCAACTGAAAAGTTGT…AGTTCTGCACGTAGAAGCAAAAGGC
To be noted: 42 °C. Summed up: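 The ligase ribozyme variants were produced by PCR amplification of oligo-pool templates, T7 transcription and purification on gel. Their ligated and unligated forms were gel-separated, then reverse transcribed with barcoded primers before MiSeq sequencing. Core bases were filtered at a quality of ≥20, and fraction ligated per variant was ligated reads over total reads.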
As to TACACTTGTCTAAGACACTTTGGATGGGTTGA [2d54], the fraction ligated is 0.609.

TACACTTGTCTAAGACACTTTGGATGGTTGA [3d643] had a fraction ligated of 0.449.

TACACTTGTCTAAGACACTTTGGTGGGTTGA [3d641] gave a fraction ligated of 0.124.

For TACACTTGTCTAAGACATTTGGATGGGTTGA [3d638], the fraction ligated was 0.457.

TACACTTGTCTAAGACCTTTGGATGGGTTGA [3d637]: the fraction ligated turned out to be 0.0809.

The sequence TACACTTGTCTAAGCACTTTGGATGGGTTGA [3d635] displayed a fraction ligated of 0.142.

Take TACACTTGTCTAGACACTTTGGATGGGTTGA [3d633]: the fraction ligated stood at 0.195.

As for TACACTTGTGAAGACACTTTGGATGGGTTGA [3d618], the fraction ligated was determined as 0.345.

Regarding TACACTTGTGTAAACACTTTGGATGGGTTGA [3d620], the fraction ligated was 0.0848.

Sequence TACACTTGTGTAAGAACTTTGGATGGGTTGA [3d622] yielded a fraction ligated of 0.00557.

Regarding TACACTTGTGTAAGACACTTGGATGGGTTGA [3d625], the fraction ligated came out at 0.0347.

Sequence TACACTTGTGTAAGACACTTTGATGGGTTGA [3d626] had a fraction ligated of 0.0413.

TACACTTGTGTAAGACACTTTGGAGGGTTGA [3d628] yielded a fraction ligated of 0.0881.

Consider TACACTTGTGTAAGACACTTTGGATGGGTTA [3d630], for which the fraction ligated came to 0.0333.

TACACTTGTGTAAGACACTTTGGATGGGTTG [3d631]: the fraction ligated amounted to 0.145.

TACACTTGTGTAAGACACTTTGGATGGGTTGA [2d53] gave a fraction ligated of 0.243.

TACACTTGTGTAAGACACTTTGGATGGTTGA [3d629] displayed a fraction ligated of 0.141.

TACACTTGTGTAAGACACTTTGGTGGGTTGA [3d627] displayed a fraction ligated of 0.134.

TACACTTGTGTAAGACATTTGGATGGGTTGA [3d624] came in with a fraction ligated of 0.392.

As for TACACTTGTGTAAGACCTTTGGATGGGTTGA [3d623], the fraction ligated was 0.0441.

TACACTTGTGTAAGCACTTTGGATGGGTTGA [3d621] registered a fraction ligated of 0.101.

In the case of TACACTTGTGTAGACACTTTGGATGGGTTGA [3d619], the fraction ligated amounted to 0.0703.

TACACTTGTTAAGACACTTTGGATGGGTTGA [3d617] gave a fraction ligated of 0.244.

TACACTTTCGAAGACACTTTGGATGGGTTGA [3d587]: the fraction ligated stood at 0.0357.

The sequence TACACTTTCGTAAACACTTTGGATGGGTTGA [3d589] registered a fraction ligated of 0.0248.

Sequence TACACTTTCGTAAGAACTTTGGATGGGTTGA [3d591] came in with a fraction ligated of 0.0829.

TACACTTTCGTAAGACACTTGGATGGGTTGA [3d594] yielded a fraction ligated of 0.0252.

With TACACTTTCGTAAGACACTTTGATGGGTTGA [3d595], the fraction ligated worked out at 0.0271.

TACACTTTCGTAAGACACTTTGGAGGGTTGA [3d597]: the fraction ligated is 0.0439.

The sequence TACACTTTCGTAAGACACTTTGGATGGGTTA [3d599] yielded a fraction ligated of 0.00822.

As for TACACTTTCGTAAGACACTTTGGATGGGTTG [3d600], the fraction ligated is 0.0259.

In the case of TACACTTTCGTAAGACACTTTGGATGGGTTGA [2d51], the fraction ligated came to 0.0483.

TACACTTTCGTAAGACACTTTGGATGGTTGA [3d598] yielded a fraction ligated of 0.0486.

TACACTTTCGTAAGACACTTTGGTGGGTTGA [3d596]: the fraction ligated was 0.0156.

For the sequence TACACTTTCGTAAGACATTTGGATGGGTTGA [3d593], the fraction ligated was found to be 0.292.

Regarding TACACTTTCGTAAGACCTTTGGATGGGTTGA [3d592], the fraction ligated came out at 0.0278.

Regarding TACACTTTCGTAAGCACTTTGGATGGGTTGA [3d590], the fraction ligated was determined as 0.0355.

Turning to TACACTTTCGTAGACACTTTGGATGGGTTGA [3d588], the fraction ligated was 0.0222.

In the case of TACACTTTCTAAGACACTTTGGATGGGTTGA [3d586], the fraction ligated was 0.0445.

TACACTTTGTAAGACACTTTGGATGGGTTGA [3d585]: the fraction ligated amounted to 0.0938.

In turn, TACATGTCGTAAGACACTTTGGATGGGTTGA [3d547] had a fraction ligated of 0.16.

The sequence TACATTGCGTAAGACACTTTGGATGGGTTGA [3d549] returned a fraction ligated of 0.0211.

TACATTGTCGAAGACACTTTGGATGGGTTGA [3d552] had a fraction ligated of 0.0671.

For TACATTGTCGTAAACACTTTGGATGGGTTGA [3d554], the fraction ligated stood at 0.0244.

TACATTGTCGTAAGAACTTTGGATGGGTTGA [3d556] gave a fraction ligated of 0.0064.

The sequence TACATTGTCGTAAGACACTTGGATGGGTTGA [3d559] had a fraction ligated of 0.19.

Take TACATTGTCGTAAGACACTTTGATGGGTTGA [3d560]: the fraction ligated was 0.232.

In turn, TACATTGTCGTAAGACACTTTGGAGGGTTGA [3d562] came in with a fraction ligated of 0.16.

Regarding TACATTGTCGTAAGACACTTTGGATGGGTTA [3d564], the fraction ligated was 0.0607.

The sequence TACATTGTCGTAAGACACTTTGGATGGGTTG [3d565] had a fraction ligated of 0.163.

TACATTGTCGTAAGACACTTTGGATGGGTTGA [2d49] gave a fraction ligated of 0.223.

Sequence TACATTGTCGTAAGACACTTTGGATGGTTGA [3d563] had a fraction ligated of 0.303.

As to TACATTGTCGTAAGACACTTTGGTGGGTTGA [3d561], the fraction ligated is 0.144.

TACATTGTCGTAAGACATTTGGATGGGTTGA [3d558] had a fraction ligated of 0.298.

TACATTGTCGTAAGACCTTTGGATGGGTTGA [3d557] yielded a fraction ligated of 0.214.

TACATTGTCGTAAGCACTTTGGATGGGTTGA [3d555] registered a fraction ligated of 0.041.

TACATTGTCGTAGACACTTTGGATGGGTTGA [3d553] displayed a fraction ligated of 0.0879.

TACATTGTCTAAGACACTTTGGATGGGTTGA [3d551] displayed a fraction ligated of 0.0666.

TACATTGTGTAAGACACTTTGGATGGGTTGA [3d550]: the fraction ligated is 0.0317.

With TACATTTCGTAAGACACTTTGGATGGGTTGA [3d548], the fraction ligated came to 0.0271.

Regarding TACCTGTCGTAAGACACTTTGGATGGGTTGA [3d528], the fraction ligated came to 0.655.

Turning to TACCTTGCGTAAGACACTTTGGATGGGTTGA [3d530], the fraction ligated turned out to be 0.392.

TACCTTGTCGAAGACACTTTGGATGGGTTGA [3d533] showed a fraction ligated of 0.676.

Sequence TACCTTGTCGTAAACACTTTGGATGGGTTGA [3d535] displayed a fraction ligated of 0.418.

As for TACCTTGTCGTAAGAACTTTGGATGGGTTGA [3d537], the fraction ligated was 0.253.

The sequence TACCTTGTCGTAAGACACTTGGATGGGTTGA [3d540] displayed a fraction ligated of 0.746.

The sequence TACCTTGTCGTAAGACACTTTGATGGGTTGA [3d541] came in with a fraction ligated of 0.304.

With TACCTTGTCGTAAGACACTTTGGAGGGTTGA [3d543], the fraction ligated was determined as 0.24.

TACCTTGTCGTAAGACACTTTGGATGGGTTA [3d545] showed a fraction ligated of 0.548.

Take TACCTTGTCGTAAGACACTTTGGATGGGTTG [3d546]: the fraction ligated came out at 0.719.

As to TACCTTGTCGTAAGACACTTTGGATGGGTTGA [2d48], the fraction ligated turned out to be 0.772.

The sequence TACCTTGTCGTAAGACACTTTGGATGGTTGA [3d544] showed a fraction ligated of 0.233.

Turning to TACCTTGTCGTAAGACACTTTGGTGGGTTGA [3d542], the fraction ligated is 0.744.

Sequence TACCTTGTCGTAAGACATTTGGATGGGTTGA [3d539] gave a fraction ligated of 0.749.

TACCTTGTCGTAAGACCTTTGGATGGGTTGA [3d538] had a fraction ligated of 0.734.

TACCTTGTCGTAAGCACTTTGGATGGGTTGA [3d536] showed a fraction ligated of 0.668.

For the sequence TACCTTGTCGTAGACACTTTGGATGGGTTGA [3d534], the fraction ligated worked out at 0.697.

With TACCTTGTCTAAGACACTTTGGATGGGTTGA [3d532], the fraction ligated amounted to 0.685.

Regarding TACCTTGTGTAAGACACTTTGGATGGGTTGA [3d531], the fraction ligated was 0.795.

TACCTTTCGTAAGACACTTTGGATGGGTTGA [3d529] had a fraction ligated of 0.435.

In turn, TACTTGTCGTAAGACACTTTGGATGGGTTGA [3d2] yielded a fraction ligated of 0.486.

In turn, TATACGTCGTAAGACACTTTGGATGGGTTGA [3d777] displayed a fraction ligated of 0.735.

In turn, TATACTGCGTAAGACACTTTGGATGGGTTGA [3d779] gave a fraction ligated of 0.779.

The sequence TATACTGTCGAAGACACTTTGGATGGGTTGA [3d782] had a fraction ligated of 0.71.

TATACTGTCGTAAACACTTTGGATGGGTTGA [3d784] gave a fraction ligated of 0.721.

TATACTGTCGTAAGAACTTTGGATGGGTTGA [3d786] gave a fraction ligated of 0.809.

Regarding TATACTGTCGTAAGACACTTGGATGGGTTGA [3d789], the fraction ligated amounted to 0.803.

Sequence TATACTGTCGTAAGACACTTTGATGGGTTGA [3d790] yielded a fraction ligated of 0.743.

TATACTGTCGTAAGACACTTTGGAGGGTTGA [3d792] yielded a fraction ligated of 0.042.

TATACTGTCGTAAGACACTTTGGATGGGTTA [3d794] returned a fraction ligated of 0.0511.

TATACTGTCGTAAGACACTTTGGATGGGTTG [3d795] returned a fraction ligated of 0.683.

TATACTGTCGTAAGACACTTTGGATGGGTTGA [2d71]: the fraction ligated came out at 0.797.

On to TATACTGTCGTAAGACACTTTGGATGGTTGA [3d793], for which the fraction ligated worked out at 0.132.

TATACTGTCGTAAGACACTTTGGTGGGTTGA [3d791]: the fraction ligated came to 0.0244.

As for TATACTGTCGTAAGACATTTGGATGGGTTGA [3d788], the fraction ligated came to 0.756.

For the sequence TATACTGTCGTAAGACCTTTGGATGGGTTGA [3d787], the fraction ligated stood at 0.765.

In turn, TATACTGTCGTAAGCACTTTGGATGGGTTGA [3d785] returned a fraction ligated of 0.759.

TATACTGTCGTAGACACTTTGGATGGGTTGA [3d783] displayed a fraction ligated of 0.757.
